{"source": "patent US12297265B2", "about": "“Antibody and use thereof” (SICHUAN KELUN-BIOTECH BIOPHARMACEUTICAL CO., LTD., priority 2018, dated 2025)", "molecules": {"B1": {"name": "2C6.9-hz11: humanized antibody of 2C6.9; VH SEQ ID NO: 39, VL SEQ ID NO: 41 (antibody, V domains shown)", "VH": "QVQLQESGPGLVKPSETLSLTCTVSGFSLTRYGVSWIRQPPGKGLEWIGVIWGDGNTNYNPSLKSRVTISKDSSKSQVSLKLSSVTAADTAVYYCARVNFGNALDYWGQGTLVTVSS", "VL": "DIVMTQSPDSLAVSLGERATINCKSSQSLLNSGNQKNYLTWYQQKPGQPPKLLIYWASTRDSGVPDRFSGSGSGTDFTLTISSLQAEDVAVYYCQNDFIFPLTFGGGTKVEIK", "modifications": "Heavy chain variable region of humanized antibody 2C6.9hz11; light chain variable region of humanized antibody 2C6.9hz11/2C6.9hz21"}}, "biological_target": "human Claudin18.2 (Homo sapiens, UniProt P56856)", "assay": "Cellular ELISA on L929-Claudin 18.2 cells", "type": "binding", "set-up": "expressed in transfected cells; host or cells: L929, infected with pLVX-IRES-puro lentivirus, puromycin-selected monoclonal line; cells were formaldehyde-fixed for the cellular ELISA", "conditions": "Table 10 experiment", "description": "Human Claudin18.2 is a four transmembrane protein and has a complex structure. Cellular ELISA was thus carried out to maintain the structure of Claudin18.2. The stable cell line L929-Claudin 18.2 constructed in Example 1 were used for detection. Specifically, L929-Claudin 18.2 adherent cells were detached by 2 mM EDTA treatment. The cells were resuspended and adjusted to 2×10^5/mL and 100 μL of the resuspension was plated into 96 well plate and incubated overnight at 37° C. The next day, the media was removed, and the plate was washed with PBS once. 100 μL/well 4% formaldehyde was added to the plate. After 30 min of incubation at room temperature, formaldehyde was removed, followed by washing twice with PBS. Blocking buffer (PBS containing 2% BSA) was then added to the plate at 100 μL/well, and incubated at 37° C. for 2 h. After removal of blocking buffer, 100 μL/well of serially diluted antibodies (starting from 1 μM, with 4-fold dilution, for a total of 11 concentrations) were added to the corresponding wells, which were incubated at 37° C. for 2h afterwards. The plate was washed with 250 μL PBST for 5 times, and was allowed to stand for 2 min each time. 100 μL/well of horseradish peroxidase labeled anti-Human IgG secondary antibody (HRP-anti-Human IgG, Jackson ImmunoResearch, 109-035-003) diluted 1:10000 in PBS (containing 2% BSA) was added to the plate. The plate was incubated at 37° C. for 1 h and washed with 250 μL PB ST 6 times, wherein the plate was allowed to stand for 2 min each time. 100 μL/well of TMB solution (Thermo, 34029) was added. The reactions were incubated at 37° C. for 20 min and stopped with 50 μL 2 mol/L H2504. The absorbance at 450 nm was read on a plate reader (MD, SpectraMax M2) and the results were subjected to curve fitting by Graphpad Prism.", "data": [{"molecule": "B1", "values": [{"measurement": "Max Signal Value (OD450)", "result": 0.8, "unit": "OD450"}]}]}
